From US20220146501A1 come the findings set out here.

Assay [1] addresses anti-C-reactive protein antibody (MAB-1). Put plainly: TR-FRET competition, acceptor emission; unlabeled CRP calibrator at 2.9 mg/L. (Time-resolved FRET reads energy transfer from a long-lived donor to a nearby acceptor.)
For assay [2] the target is unchanged. Nature of the assay: TR-FRET competition, acceptor emission; unlabeled CRP calibrator at 8.1 mg/L.
The target is the same in assay [3]. Nature of the assay: TR-FRET competition, acceptor emission; unlabeled CRP calibrator at 20.4 mg/L.
Assay [4] has the same target. Put plainly: TR-FRET competition, acceptor emission; unlabeled CRP calibrator at 60.5 mg/L.
The target is the same in assay [5]. Nature of the assay: TR-FRET competition, acceptor emission; unlabeled CRP calibrator at 118.7 mg/L.
Assay [6] shares this target. Put plainly: TR-FRET competition; labeled anti-CRP MAB-1 with labeled CRP as tracer; unlabeled CRP calibrator at 2.9 mg/L.
Assay [7] shares this target. Put plainly: TR-FRET competition; labeled anti-CRP MAB-1 with labeled CRP as tracer; unlabeled CRP calibrator at 8.1 mg/L.
The target is the same in assay [8]. Nature of the assay: TR-FRET competition; labeled anti-CRP MAB-1 with labeled CRP as tracer; unlabeled CRP calibrator at 20.4 mg/L.
For assay [9] the target is unchanged. Put plainly: TR-FRET competition; labeled anti-CRP MAB-1 with labeled CRP as tracer; unlabeled CRP calibrator at 60.5 mg/L.
For assay [10] the target is unchanged. Nature of the assay: TR-FRET competition; labeled anti-CRP MAB-1 with labeled CRP as tracer; unlabeled CRP calibrator at 118.7 mg/L.

B1: C-reactive protein (unlabeled analyte / calibrator) (protein)
chain: QTDMSRKAFVFPKESDTSYVSLKAPLTKPLKAFTVCLHFYTELSSTRGYSIFSYATKRQDNEILIFWSKDIGYSFTVGGSEILFEVPEVTVAPVHICTSWESASGIVEFWVDGKPRVRKSLKKGYTVGAEASIILGQEQDSFGGNFEGSQSLVGDIGNVNMWDFVLSPDEINTIYLGGPFSPNVLNWRALKYEVQGEVFTKPQLWP
On to B1, for which the Acceptor1RFU in [1] was found to be 210000 RFU; in assay [2], 162000 RFU; in assay [3] it was 103000 RFU; in assay [4], 49700 RFU; in assay [5], 29900 RFU. Also, the FRETRatio in [6] amounted to 17100; in [7], 13100; in assay [8] it was 8220; in [9] it was 3980; in [10], 2320.
